From patent US20200190192A1 (SUTRO BIOPHARMA, published 2020)
Changes are numbered by the printed parent chain. Names and notes keep the numbering of the source.

T1: cynomolgus Tim-3 expressed on CHO cells (cynomolgus monkey)
T1 construct: also called cTim-3; Cyno Tim-3 (CHO)
T1 chain: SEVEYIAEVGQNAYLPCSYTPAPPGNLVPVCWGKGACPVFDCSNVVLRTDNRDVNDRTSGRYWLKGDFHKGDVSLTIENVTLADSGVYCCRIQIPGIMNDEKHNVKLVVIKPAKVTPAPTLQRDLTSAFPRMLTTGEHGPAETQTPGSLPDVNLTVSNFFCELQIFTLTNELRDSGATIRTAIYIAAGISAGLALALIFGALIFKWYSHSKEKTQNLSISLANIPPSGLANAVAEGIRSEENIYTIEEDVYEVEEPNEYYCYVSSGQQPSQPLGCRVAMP

B1: 1353-G10 wt IgG (antibody, V domains shown)
VH: EVQLVQSGAEVKKPGASVKVSCKASGYRFPHYGISWVRQAPGQGLEWMGWISAYNGNTNYAQKLQGRVTMTTDTSTNTAYMELRSLRSDDTAVYYCARDVDYGTGSGYWGQGTLVTVSS
VL: SYELTQPPSVSVSPGQTARITCSGDALPKQYAYWYQQKPGQAPVMVIYKDTERPSGIPERFSGSSSGTKVTLTISGVQAEDEADYYCQSADNSITYRVFGGGTKVTVL
notes: IgG; also called Sample I
B2: 1353-G10 H1 HC IgG (antibody, V domains shown)
VH: B1 VH with R28T, P30D, H31S
VL: B1 VL
notes: IgG; also called Sample J
B3: 1353-G10 vk1-39 LC IgG (antibody, V domains shown)
VH: B1 VH
VL: DIQLTQSPSSLSASVGDRVTITCSGDALPKQYAYWYQQKPGKAPKLLIYKDTERPSGVPSRFSGSSSGTKVTLTISSLQPEDFATYYCQSADNSITYRVFGGGTKVEIK
notes: IgG; also called Sample K
B4: SRP1649-B06 (antibody, V domains shown)
VH: EVQLVESGGGLVQPGGSLRLSCAASGFNISNHAIHWVRQAPGKGLEWVADISPAVGYTDYADSVKDRFTISADTSKNTAYLQMNSLRAEDTAVYYCARGYVYRMWDSFDHWGQGTLVTVSS
VL: not shown
notes: IgG with trastuzumab LC; HIS- and FLAG-tagged
B5: SRP1649-B09 (antibody, V domains shown)
VH: B4 VH with S30R, H32N, S52T, V55G, D59G, V101I, F108L, H110Y
VL: not shown
notes: as for B4
B6: SRP1649-C05 (antibody, V domains shown)
VH: B4 VH with S30G, N31K, A33V, S52V, A54N, V55G, D59E, H110Y
VL: not shown
notes: as for B4
B7: SRP1649-D06 (antibody, V domains shown)
VH: B4 VH with S30R, S52A, V55G, F108Y, H110Y
VL: not shown
notes: as for B4
B8: SRP1649-D11 (antibody, V domains shown)
VH: B4 VH with N31G, H32Y, A33V, S52I, A54T, V55A, D59E, D66G, H110Y
VL: not shown
notes: as for B4
B9: SRP1649-E08 (antibody, V domains shown)
VH: EVQLVESGGSLVQPGGSLRLSCAASGFSISNYVIHWVRQAPGKGLEWVADISPDGGFTDYADSVKDRFTISADTSKNTAYLQMNSLRAEDTAVYYCARGHVYRLWDSFDYWGRGTLVTVSS
VL: not shown
notes: as for B4
B10: SRP1649-E10 (antibody, V domains shown)
VH: B4 VH with H32N, A33V, A49G, S52M, A54G, V55G, Y57S, F108Y, H110Y
VL: not shown
notes: as for B4
B11: SRP1649-G08 (antibody, V domains shown)
VH: EVQLVESGGGLVQPGGSLRLSCAASGFNISNYVIHWVRQAPGKGLEWVAAITPDGGITEYADSVKGRFAISADTSKNTAYLQMNSLRAEDTAVYYCARGYVYRMWDSYDYWGQGTLVTVSS
VL: not shown
notes: as for B4
B12: SRP1649-H02 (antibody, V domains shown)
VH: B11 VH with S30R, N31S, V33A, A50D, D54A, I57D, A69T, V101I
VL: not shown
notes: as for B4
B13: 1353-G10 scFvFc-zwB × 1649-A01 Fab-zwA (parent) (bispecific antibody)
scFv: not shown
VH: B11 VH with N31R, V33Y, A50G, D54V, G55R, I57Y, G66D, A69T
VL: not shown
notes: Tim-3 heavy chain carries zwA (T350V/L351Y/F405A/Y407V) in CH3
B14: 1353-G10 scFvFc-zwB × 1649-A01 Hc zwA Y56D/TrstmbLC S56D (bispecific antibody)
scFv: not shown
VH: B11 VH with N31R, V33Y, A50G, D54V, G55R, I57D, G66D, A69T
VL: not shown
notes: Tim-3 heavy chain with zwA CH3 mutations
B15: h22E11-VK2-28 × h22E11-VH1-69 (antibody, V domains shown)
VH: QVQLVQSGAEVKKPGSSVKVSCKVSGFSLTSYGVHWVRQAPGQGLEWLVVIWSDGSTTYNQKFQGRVTITKDESTSTVYMELSSLRSEDTAVYYCARQGGYRYDDAMDYWGQGTLVTVSS
VL: DIVLTQSPLSLPVTPGEPASISCKASQSVDYDGNSYVNWYLQKPGQSPQLLIYAASNLESGVPDRFSGSGSGTDFTLKISRVEAEDVGVYYCQQSNEDPYTFGQGTKVEIK
notes: Humanized m22E11
B16: h22E11-VK2-28 × h22E11-VH3-23 (antibody, V domains shown)
VH: EVQLLESGGGLVQPGGSLRLSCAVSGFSLTSYGVHWVRQAPGKGLEWLVVIWSDGSTTYNDSVKGRFTISKDNSKNTVYLQMNSLRAEDTAVYYCARQGGYRYDDAMDYWGQGTLVTVSS
VL: B15 VL
notes: Humanized m22E11
B17: h22E11-VK2-28 × h22E11-5-IgG-HC (antibody, V domains shown)
VH: B16 VH with L5V, D61S, S62A, V63L, G65S, S74A, T77S
VL: B15 VL
notes: Humanized m22E11
B18: h22E11-VK2-28 × h22E11-VH4-30-4 (antibody, V domains shown)
VH: QVQLQESGPGLVKPSQTLSLTCTVSGFSLTSYGVHWIRQPPGKGLEWLVVIWSDGSTTYNPSLKSRVTISKDTSKNQVSLKLSSVTAADTAVYYCARQGGYRYDDAMDYWGQGTLVTVSS
VL: B15 VL
notes: Humanized m22E11
B19: h22E11-VK2-28 × h22E11-VH5-51 (antibody, V domains shown)
VH: EVQLVQSGAEVKKPGESLKISCKVSGFSLTSYGVHWVRQMPGKGLEWLVVIWSDGSTTYNPSFQGQVTISKDKSISTVYLQWSSLKASDTAMYYCARQGGYRYDDAMDYWGQGTLVTVSS
VL: B15 VL
notes: Humanized m22E11
B20: h22E11-VK4-1 × h22E11-VH1-69 (antibody, V domains shown)
VH: B15 VH
VL: DIVLTQSPDSLAVSLGERATINCKASQSVDYDGNSYVNWYQQKPGQPPKLLIYAASNLESGVPDRFSGSGSGTDFTLTISSLQAEDVAVYYCQQSNEDPYTFGQGTKVEIK
notes: Humanized m22E11
B21: 1353-G10 H1/vk1-39 IgG (antibody, V domains shown)
VH: B1 VH with R28T, P30D, H31S
VL: B3 VL
notes: IgG; also called Sample L

What follows are binders tested against PD-1 (SPR analyte of the PD-1 kinetics) (Homo sapiens (Human), UniProt Q15116 25-167, limits assumed) (assay: SPR, PD-1 kinetics).
Binder B1 has a Kd of 0.96 nM, a koff of 0.00059 s⁻¹ and a kon of 620000 M⁻¹ s⁻¹. For B2, the Kd was 2.3 nM, the koff was 0.0026 s⁻¹ and the kon was 1.1e+06 M⁻¹ s⁻¹. Work on B3 yielded a Kd of 0.85 nM, a koff of 0.00049 s⁻¹ and a kon of 580000 M⁻¹ s⁻¹.

The binders below were run against T2, human Tim-3 (Biacore analyte; TIM-3-Fc or TIM-3-HIS, not said which) (human, UniProt Q8TDQ0 22-202) (assay: SPR Biacore, human Tim-3 (Fc or HIS not said)).
T2 construct: also called TIM-3 antigen; not shown: Fc or HIS tag
With B4 the Kd was 66.9 nM, the koff was 0.0126 s⁻¹ and the kon was 189000 M⁻¹ s⁻¹. Work on B5 yielded a Kd of 18.8 nM, a koff of 0.00249 s⁻¹ and a kon of 133000 M⁻¹ s⁻¹. Binder B6 has a Kd of 13.7 nM, a koff of 0.00166 s⁻¹ and a kon of 121000 M⁻¹ s⁻¹. In the case of B7, the Kd is reported as 74.6 nM, the koff is reported as 0.0205 s⁻¹ and the kon is reported as 275000 M⁻¹ s⁻¹. B8 showed a Kd of 10.6 nM, a koff of 0.00159 s⁻¹ and a kon of 150000 M⁻¹ s⁻¹. For B9, the Kd was 13.5 nM, the koff was 0.00182 s⁻¹ and the kon was 135000 M⁻¹ s⁻¹. With B10 the Kd was 49.7 nM, the koff was 0.014 s⁻¹ and the kon was 281000 M⁻¹ s⁻¹. B11 was tested, and the Kd was 12.8 nM, the koff was 0.00243 s⁻¹ and the kon was 191000 M⁻¹ s⁻¹. In the case of B12, the Kd is reported as 23.9 nM, the koff is reported as 0.00374 s⁻¹ and the kon is reported as 157000 M⁻¹ s⁻¹.

The binders below were run against T2, human Tim-3 (Biacore analyte; TIM-3-Fc …) (assay: SPR, Tim-3 analyte).
Work on B13 yielded a Kd of 12 nM.

Molecular target: T1, cynomolgus Tim-3 expressed on CHO cells
Assay: flow cytometry, CHO-cyno Tim-3 cells
Binder B4 has a Kd of 1.9 nM. B5 gave a Kd of 9.4 nM. For B6, the Kd was 0.8 nM. In the case of B7, the Kd is reported as 1 nM. In the case of B8, the Kd is reported as 2.2 nM. For B9, the Kd was 12.4 nM. For B10, the Kd was 7.4 nM. B11 was tested, and the Kd was 9.3 nM. In the case of B12, the Kd is reported as 2.2 nM.

These binders were tested against T3, human PD-1 expressed on CHO cells (human, UniProt Q15116 25-288) (assay: flow cytometry, CHO-human PD-1 cells).
T3 construct: also called hPD-1; CHO-hPD-1
Set-up: Bmax: unit not given here
B13 showed a Bmax of 13300 and a Kd of 1.4 nM. Binder B14 has a Bmax of 13300 and a Kd of 2.3 nM.

These binders were tested against T4, human Tim-3 expressed on the cell surface (human, UniProt Q8TDQ0 22-301) (assay: flow cytometry, activated human CD4+ T cells).
T4 construct: also called hTim-3; Human Tim-3 (CHO)
Work on B15 yielded a Kd of 2.3 nM. B16 showed a Kd of 1.7 nM. B17 showed a Kd of 3.3 nM. B18 was tested, and the Kd was 9.2 nM. B19 showed a Kd of 0.7 nM. For B20, the Kd was 6.3 nM.

The binders below were run against T4, human Tim-3 expressed on the cell … (assay: flow cytometry, CHO-human Tim-3 cells).
Work on B15 yielded a Kd of 0.7 nM. With B16 the Kd was 0.8 nM. B17 was tested, and the Kd was 0.8 nM. Work on B18 yielded a Kd of 0.8 nM. For B19, the Kd was 0.6 nM. Binder B20 has a Kd of 1 nM.

Molecular target: T4, human Tim-3 expressed on the cell …
Assay: flow cytometry, CHO-human Tim-3 cells
Remark: another data set of the same source
Binder B4 has a Kd of 0.2 nM. For B5, the Kd was 0.2 nM. B6 was tested, and the Kd was 0.2 nM. For B7, the Kd was 0.1 nM. For B8, the Kd was 0.1 nM. B9 was tested, and the Kd was 0.2 nM. B10 gave a Kd of 0.2 nM. Binder B11 has a Kd of 0.2 nM. Work on B12 yielded a Kd of 0.2 nM.

The binders below were run against T5, biotinylated recombinant human PD-1 (AcroBiosystems) (human, UniProt Q15116 25-167, limits assumed, biotinylated (sites not given)) (assay: competition, flow cytometry: biotin-PD-1 binding to CHO-human PD-L1 cells).
T5 construct: Bought protein; also called biotinylated PD-1
Binder B13 has an IC50 of 191 nM. B14 showed an IC50 of 82 nM.

The binders below were run against T3, human PD-1 expressed on CHO cells (assay: hPD-1 binding titration (format not named; taken as cell binding)).
Work on B1 yielded a Bmax of 2980 and a Kd of 0.1 nM. B2 showed a Bmax of 3410 and a Kd of 0.5 nM. B3 was tested, and the Bmax was 3630 and the Kd was 0.8 nM. For B21, the Bmax was 4940 and the Kd was 12.9 nM.

Each binder was assayed against T6, recombinant human Tim-3-Fc (R&D Systems, 2365-TM) (human, UniProt Q8TDQ0 22-202, biotinylated in the Galectin-9 competition ELISA (sites not given)) (assay: SPR Biacore, human Tim-3 Fc;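 also: antibodies captured on an anti-FLAG sensor surface, Tim-3-Fc flowed over as analyte at 25 °C in HBS-EP+ buffer, rates fit with a 1:1 Langmuir model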).
T6 construct: Bought protein; also called huTim-3-Fc; biotinylated Tim-3-Fc; not shown: Fc of the bought fusion protein
Work on B15 yielded a koff of 0.000863 s⁻¹. Work on B16 yielded a koff of 0.000911 s⁻¹. Work on B17 yielded a koff of 0.00101 s⁻¹. For B18, the koff was 0.00109 s⁻¹. B19 showed a koff of 0.000903 s⁻¹. B20 showed a koff of 0.000863 s⁻¹.

Molecular target: T1, cynomolgus Tim-3 expressed on CHO cells
Assay: flow cytometry, CHO-cyno Tim-3 cells
Remark: another data set of the same source
Work on B15 yielded a Kd of 1.7 nM. B16 showed a Kd of 5.4 nM. With B17 the Kd was 4.1 nM. With B18 the Kd was 4.3 nM. In the case of B19, the Kd is reported as 2.3 nM. B20 gave a Kd of 2.5 nM.

Each binder was assayed against T6, recombinant human Tim-3-Fc (R&D …) (assay: SPR Biacore, human Tim-3 Fc; KD estimated).
Work on B15 yielded a Kd of 5.4 nM. Work on B16 yielded a Kd of 5.9 nM. B17 gave a Kd of 6.7 nM. Binder B18 has a Kd of 7.9 nM. In the case of B19, the Kd is reported as 4.8 nM. B20 gave a Kd of 5.5 nM.

Molecular target: T4, human Tim-3 expressed on the cell …
Assay: flow cytometry, CHO-human Tim-3 cells
Set-up: Bmax: unit not given here
Remark: another data set of the same source
B13 was tested, and the Bmax was 14700 and the Kd was 3.9 nM. B14 gave a Bmax of 11200 and a Kd of 4.5 nM.
